Results on four molecules are retold here after patent US20150147278A1 (KINKI UNIVERSITY, published 2015).

A value given as a limit tells only on which side of the number the result lay.

The assay concerns the target T1, human LAT1/CD98 complex (human, UniProt Q01650 1-507; P08195 2-529).
T1 construct: whole, on cells; Disulfide-bonded heterodimer, endogenous on human tumor cell lines (HCT116, NCI-H1944, A549, HeLa); No purified or transfected antigen was used; also called LAT1/CD98 complex protein; LAT1/4F2hc
The experiment in a line: flow cytometry on human tumor cell lines, antibody prepared at 40 µg/mL; reference LGtra01-01. On the procedure: Using four types of human tumor cell lines, the anti-LAT1/CD98 monoclonal antibodies were measured for their binding ability by FCM analysis. The human tumor cell lines were each adjusted with PBS to 1×10⁵ cells/well and dispensed into tubes in 50 μL volumes. To this cell suspension, 50 μL of each monoclonal antibody prepared at 40 μg/mL was added and reacted at 4° C. for 45 minutes. After washing three times by addition of 0.1% BSA-PBS (100 μL) and the subsequent centrifugation at 500 g for 3 minutes at 4° C., the cell pellets were each supplemented with 50 μL of 200-fold diluted PE-labeled anti-rat IgG (Jackson Immuno Research) and reacted under light-shielded conditions at 4° C. for 45 minutes. After washing three times by addition of 0.1% BSA-PBS (100 μL) and the subsequent centrifugation at 500 g for 3 minutes at 4° C., the cells were suspended in PBS (500 μL) and then transferred to FCM tubes. PI (100 μL) was added immediately before measurement to remove dead cells, followed by measurement with a FACS calibur (Becton Dickinson).
A general note: A flow cytometer gives signals particle by particle.

T1 sequence (Q01650 whole entry, chain 1 of 2): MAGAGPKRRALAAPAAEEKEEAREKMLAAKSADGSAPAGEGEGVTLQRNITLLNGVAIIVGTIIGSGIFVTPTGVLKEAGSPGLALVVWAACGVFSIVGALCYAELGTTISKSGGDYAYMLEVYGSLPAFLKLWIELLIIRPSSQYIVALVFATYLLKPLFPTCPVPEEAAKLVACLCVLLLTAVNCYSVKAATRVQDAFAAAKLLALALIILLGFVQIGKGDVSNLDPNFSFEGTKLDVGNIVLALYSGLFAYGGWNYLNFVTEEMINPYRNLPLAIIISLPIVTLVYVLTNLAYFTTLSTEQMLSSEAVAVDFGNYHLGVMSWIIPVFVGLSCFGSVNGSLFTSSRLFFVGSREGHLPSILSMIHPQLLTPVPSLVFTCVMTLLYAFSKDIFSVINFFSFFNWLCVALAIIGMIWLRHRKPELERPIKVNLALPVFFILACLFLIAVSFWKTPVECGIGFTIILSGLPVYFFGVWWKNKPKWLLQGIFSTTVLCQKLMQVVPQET
T1 sequence (P08195 103-630, chain 2 of 2): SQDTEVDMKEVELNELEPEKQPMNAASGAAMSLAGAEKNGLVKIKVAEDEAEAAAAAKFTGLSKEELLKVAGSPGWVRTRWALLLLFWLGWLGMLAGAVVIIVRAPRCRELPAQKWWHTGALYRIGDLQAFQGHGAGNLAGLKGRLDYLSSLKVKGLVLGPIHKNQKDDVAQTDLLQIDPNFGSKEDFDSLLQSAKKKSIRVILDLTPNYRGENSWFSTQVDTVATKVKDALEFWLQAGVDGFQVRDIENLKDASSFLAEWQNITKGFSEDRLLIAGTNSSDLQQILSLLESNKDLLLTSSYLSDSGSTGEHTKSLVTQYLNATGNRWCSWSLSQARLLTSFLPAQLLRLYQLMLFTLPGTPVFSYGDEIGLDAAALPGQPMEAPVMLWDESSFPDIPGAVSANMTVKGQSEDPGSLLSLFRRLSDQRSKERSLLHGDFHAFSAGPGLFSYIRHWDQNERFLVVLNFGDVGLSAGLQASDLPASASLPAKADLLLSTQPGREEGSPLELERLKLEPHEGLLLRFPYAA

B1: LG9112 monoclonal antibody (antibody, V domains shown)
VH: QMQLKESGPGLVQPSQTLSLTCAVSGFSLPTSSVSWIRQSPGKGLEWMGVIWSNGNTDYSSRFKSRLSISRDTAKSQVFLKMNSLQAEDTAMYFCARNFRNDPGVMDAWGQGASVTVSS
VL: NIVMTQSPKSMSISVGDRVTMNCKASQNVGNNVAWYQQKPGLSPKLLISYASSRHTGVPDRFTGRGSGADFTLTINGVQAEDAAFYYCQRVYKSPYTFGGGTKLELKR
notes: Rat monoclonal antibody from a hybridoma, purified from ascites with Protein G and detected with anti-rat IgG; also called anti-LAT1/CD98 monoclonal antibody
On to B1, for which the “fold higher binding activity than LGtra01-01 monoclonal antibody” value was no less than 10 fold.

B2: LG9111 monoclonal antibody (antibody, V domains shown)
VH: QLQLKESGPGLVQPSQTLSLTCTVSGFSLPTSSVSWIRQPPGKGLEWMGVIWSNGNTDYSSAIKSRLSISRDTSKSQVFLKMNSLQTEDTARYFCARNFRNDPGVMDAWGQGASVTVSS
VL: NIVMTQSPRSMSLSGGDRVTMNCRASQNVGNNVAWYQQRPGQSPKLLISYASNRNTGVPGRFTGSGSGTDFTLTISSVQAEDAAFYYCQRIYKSPYTFGGGTKLELKR
notes: as for B1
In the case of B2, the “fold higher binding activity than LGtra01-01 monoclonal antibody” value is no less than 10 fold.

B3: LG9114 monoclonal antibody (antibody, V domains shown)
VH: QMQLKESGPGLVQPSQTLSLTCAVSGFSLPTSSVSWIRQSPGKGLEWMGVIWSNGNTDYSSRIKSRLSISRDTSKSQVFLKMNSLQTEDTAMYFCARNFRNNPGVMDAWGQGASVTVSS
VL: NIVMTQSPKSMSISVGDRVTMNCKASQNVGNNVAWYQQKPGLSPKLLIYYASSRHTGVPDRFTGSGSGADFTLTINSVQAEDAAFYYCQRVYKSPYTFGGGTKLELKR
notes: as for B1
As for B3, the “fold higher binding activity than LGtra01-01 monoclonal antibody” value is no less than 10 fold.

B4: LG9113 monoclonal antibody (antibody, V domains shown)
VH: QMQLKESGPGLVQPSQTLSLTCAVSGFSLPTSSVSWIRQSPGKGLEWMGVIWSNGNTDYSSRFKSRLSISRDTAKSQVFLKMNSLQTEDTAMYFCARNFRNDPGVMDAWGQGASVTVSS
VL: NIVMTQSPKSMSISVGDRVTMNCKASQTVGNNVAWYQQKPGLSPKLLISYASSRHTGVPDRFTGRGSGADFTLTINGVQAEDAAFYYCQRVYKSPYTFGGGTKLELKR
notes: as for B1
Turning to B4, the “fold higher binding activity than LGtra01-01 monoclonal antibody” value was no less than 10 fold.
